Data taken from the DeepSol protein solubility set.

Test: soluble on expression in E. coli; label from the status in PepcDB or PDB records

Sequence: MGSDKIHHHHHHENLYFQGMNIETLMIKNPPILSKEDRLGSAFKKINEGGIGRIIVANEKIEGLLTTRDLLSTVESYCKDSCSQGDLYHISTTPIIDYMTPNPVTVYNTSDEFTAINIMVTRNFGSLPVVDINDKPVGIVTEREFLLLYKDLDEIFPVKVFMSTKVQTIYKEVRLDQAVKLMLRRGFRRLPVIDDDNKVVGIVTVVNAIKQLAKAVDKLDPDYFYGKVVKDVMVTNLVTIDELASVNRAAAEMIVKRIGSLLILNKDNTIRGIITERDLLIALHHILVMEKFKEKL
- soluble on expression in E. coli: soluble

Sequence: MSLTKPTIALTELVEKGADADLLKQMIQFVAQRMMEFDVEGLCGAGFDVKSPDRTNSRNGYRDRLWQTRAGDVDLKIPKLRQGNYFPGFLEPRRTAEKAMAAVIQEAYIQGVSTRSVDELVKAMGMTGISKSQVSRLAGEIDERVHAFLDRPLEGDWPYLWIDATYVKVREAGRIVSVVVIIAVAVNTDGGREVLGMRVGPSEAEPFWTDFLRSLMRRGLRGVKLVISDAHEGLKAAASKVFNATWQRCRVHFMRNAMAHVGKGQRTMVAALLRTVFAQDSRAECHQQWRLVADQLREKYPKIATLMDGCEDEVLAHMAFPKAHRQQLHSTNPLERLNAEIKRRTDVVGIFPNDPAITRLVGAMLLEQNDEWCLQRRYMQLEAFEAVSDNPQAKLSAVINEGHHHHHH
- soluble on expression in E. coli: soluble

Sequence: MFDLAERLSSNKSNESKLSHKLKTMLFYQTEECRSLVNESFRFDGKDEPKCVKNRDEEFRQIDLLNPPEVVIIELNASQDVVQDAQRLAHLLPSQVSVVIVGSEDAISTIRLLKEMGFYYLFWPVSKQECSDFMKHVLDNHEQHRGLMANRKSKRVAMVGVKGGVGTSLISSEVSRMLSFDKGVSTLLVDHNYHGGNLDIFMGLKQHQKRIVQKGTLISNIDGTYALGLIRKITPMLSMLAIDSDELNAQELKEYTLAVQEQALKNSSVMIEDHAHLIRNEDDIIKLLQQVDVLVLVFDATVSSLRDYNRLNQLVKKNNLDNQTRVISVLNSSRPSNSGSVSAEEIEKYSGQRATISIPYDDKAPQYVLEGLQIVKTKSAMALPLMNLVALILGEEPKQESRSFLSFFKKKG
- soluble on expression in E. coli: not soluble

Sequence: MRKKDAYISQVKVRQDPVNQLAVEMRAKRFGLTIEEAKNPLAGSYVGRLCLQGVLTQDQYDATQKYLEVRNDYSCAKGLPSAVYDEKPSSSDDKAREKWVERATEQFCNTQKVLKEAQCLYRQHNLYAALQYLVMEDQELPHLVNALRIALNTLQKYFDPKSKWEMFYCYEKLLKNR
- soluble on expression in E. coli: not soluble

Sequence: MTESFAELFEASQANLAKLKPGSIVTGTVVEVRGDVVVINAGLKSEGIVPIEQFRNDAGEIDVGVGDQVKVALDSIENGFGETVLSREKAKRAMVWDELEEALEKNETITGRISGKVKGGFTVDIKDVRAFLPGSLVDVRPVRDPAYLEGKELEFKLIKLDRKRNNVVVSRRAVVESEHSEEREQLMDKLQEGAILKGVVKNLTDYGAFVDLGGIDGLLHITDMAWKRVRHPSEVVNVGDELDVRVLKFDRERNRVSLGLKQLGEDPWDNIARRYPANSRVFGKVSNVTDYGAFVEIEPGVEGLVHVSEMDWTNKNVNPSKVVQVGDEVEVMVLDVDEERRRISLGMKQVAANPWETFAATHKKNDKVSGQIKSITDFGIFIGLDGGIDGLVHLSDISWNTTGEDVVRNYKKGDTLEAVVLAVDPERERISLGVKQLEQDPFGQYMASNPKGSKVEGVVREVDAKGATIDLADGIEGYVAARDIANERVDDATQHLKVGDKIEAKFVGMDRKGRTLQLSIKAKDDAEMREVLEEYQSASGGTTQLGALLRAQLNSNKSELEHHHHHH
- soluble on expression in E. coli: soluble

Sequence: SSFKKILGLSSKSHKKSKKMGLPPPYDESSPMETQPSAPLSNDFFGMEDMDLYDKDSLRYEKFRFMLKMTVRSNKPFRSYDDVTAAVSQWDNSYIGMVGKRPFYKIIALIGSSHLQATPAVLADLNQPEYYATLTGRCFLPHRLGLIPPMFNVSETFRKPFNIGIYKGTLDFTFTVSDDESNEKVPHVWEYMNPKYQSQIQKEGLKFGLILSKKATGTWVLDQLSPFK
- soluble on expression in E. coli: soluble

Sequence: MGSDKIHHHHHHMQNTDIVVIGSGIGGLSCAALLARYGFDVIVCESHSIAGGAAHGFERNGFKFDSGPSLYSGLSYSPSANPLRQVLDAIGSELPCVTYDTWGCCLPEGDFDTAVGAEQFCEVLMKFCGDDAVAEWQELQRVMEPFARAATSIPPAALRFDFGAARTVGPFVPSLTKNVANIIKLTGPFSRIMDGVVKDSFTRNWLNLLCFLLSGLPADGTSAAEVAFMFADWYRPDAILEYPIGGSSALVDSLVQGLERHGGKLMLGAHVEEVLVEGNRAVGVRLRDRSEIRAKLAVISNASVWDTLKLLPEKAIPKQYRSKRQATPECDSFMHLHLGIDAQGLQSNLRCHYIVVNNWELGVTAPQNVVVISIPSVLDPSLAPAGKHVIHVYTPGNEPYSFWQGMDRRSQEYAEQKRSRAEVMWQALERIIPDIRSRCEVTLVGTPLTHERYLRRHQGSYGPAIQAGSGMFPSPSTPLPGLMCCGDSTFPGIGLPAVAASGLIAANTLAPVNKHLAMLQDINCI
- soluble on expression in E. coli: not soluble

Sequence: QIKSQGCRISRTFLLICSRGRKQRMKDSENKGASSPDMEPSYGGGLFDMVKGGAGRLFSNLKDNLKDTLKDTSSRVIQSVTSYTKGDLDFTYVTSRIIVMSFPLDNVDIGFRNQVDDIRSFLDSRHLDHYTVYNLSPKSYRTAKFHSRVSECSWPIRQAPSLHNLFAVCRNMYNWLLQNPKNVCVVHCLDGRAASSILVGAMFIFCNLYSTPGPAIRLLYAKRPGIGLSPSHRRYLGYMCDLLADKPYRPHFKPLTIKSITVSPIPFFNKQRNGCRPYCDVLIGETKIYSTCTDFERMKEYRVQDGKIFIPLNITVQGDVVVSMYHLRSTIGSRLQAKVTNTQIFQLQFHTGFIPLDTTVLKFTKPELDACDVPEKYPQLFQVTLDVELQPHDKVIDLTPPWEHYCTKDVNPSILFSSHQEHQDTLALGGQAPIDIPPDNPRHYGQSGFFASLCWQDQKSEKSFCEEDHAALVNQESEQSDDELLTLSSPHGNANGDKPHGVKKPSKKQQEPAAPPPPEDVDLLGLEGSAMSNSFSPPAAPPTNSELLSDLFGGGGAAGPTQAGQSGVEDVFHPSGPASTQSTPRRSATSTSASPTLRVGEGATFDPFGAPSKPSGQDLLGSFLNTSSASSDPFLQPTRSPSPTVHASSTPAVNIQPDVSGGWDWHAKPGGFGMGSKSAATSPTGSSHGTPTHQSKPQTLDPFADLGTLGSSSFASKPTTPTGLGGGFPPLSSPQKASPQPMGGGWQQGGAYNWQQPQPKPQPSMPHSSPQNRPNYNVSFSAMPGGQNERGKGSSNLEGKQKAADFEDLLSGQGFNAHKDKKGPRTIAEMRKEEMAKEMDPEKLKILEWIEGKERNIRALLSTMHTVLWAGETKWKPVGMADLVTPEQVKKVYRKAVLVVHPDKATGQPYEQYAKMIFMELNDAWSEFENQGQKPLY
- soluble on expression in E. coli: soluble

Sequence: MQNTTHDNVILELTVRNHPGVMTHVCGLFARRAFNVEGILCLPIQDSDKSHIWLLVNDDQRLEQMISQIDKLEDVVKVQRNQSDPTMFNKIAVFFQ
- soluble on expression in E. coli: not soluble

Sequence: MSLYYICPYFLDKNGHRVQKTMVGKVALDEQKLTPQKFSITYPLIINLQDEKVKTKVNEDIVNQVSELFKNQVLLTEKIDLSEVFGAYEIGVNRNYILSILFSIYTYMNRAAHGLTVYSSITVNTRTGKVYSFSDLFNPKMNYLGELTTIVKKYIKDNNIQLIEDYKGVTNDQEFYLTNDKLVLYYQVYAYTPYYYGLFRIPIPYTEIKNLLGPMSPINNLIEGHHHHHH
- soluble on expression in E. coli: not soluble

Sequence: MEWPRFGRVVLKPFSAGLSEAEWKGLYETFRDPEVAEWNGSSPLRSPFWLFKRFVLAEARRKDRVAFVILDEKGEYLGTLELYDLTPEEATLGILIGRKDRWGQGYGTEAVRAALDYAFRVLGLRRVKLRTFAHNLRARRAFQKAGFREVGVVPGPRGREDVHMEVRREDLGPEA
- soluble on expression in E. coli: soluble

Sequence: SLLLVIDVGNTNTVLGVYHDGKLEYHWRIETSRHKTEDEFGMILRSLFDHSGLMFEQIDGIIISSVVPPIMFALERMCTKYFHIEPQIVGPGMKTGLNIKYDNPKEVGADRIVNAVAAIHLYGNPLIVVDFGTATTYCYIDENKQYMGGAIAPGITISTEALYSRAAKLPRIEITRPDNIIGKNTVSAMQSGILFGYVGQVEGIVKRMKWQAKQKQKVIATGGLAPLIANESDCIDIVDPFLTLKGLELIYERNRVGSV
- soluble on expression in E. coli: soluble

Sequence: MLILDYTKLKVTFMTMHHPNLQQHDRPQAISRSYLDIRHVVKQFGSFTALKEISLSIEKGEFVCFLGPSGCGKTTLLRAIAGLDLPTSGTIHQNQQAITFLPPEQRDFGIVFQSYALFPNLTVEENIAIGLRNQGMSVRDALEKVEQWLEMIGLATSAQKYPSQLSGGQQQRVALARALALSPGLLLLDEPLSALDAKVRTHLREEICQLQRKLGITTIMVTHDQEEALTMADRIVVMNHGVIEQVGTPQEIYQKPASRFVAEFVGTMNFIPVSMASSQQLRIAESLIALPKIENYTPCQGEQFDLAVRPENLELVTRYNEAIPVVIRHLEFLGAFYRVECVFQGERLAPPVYVDLPITQVQTMNLKAGDVRYLALRAGQLRAYRRKVMSTTPAATASCAYAA
- soluble on expression in E. coli: not soluble

Sequence: MMPGYQSADEFADKEKGWTGVHQWEKEMAKADEKYGPIFAKFAAMPIEEVAKDPQAVKMGGRLFASNCSICHGSDAKGAYGFPNLTDADWRWGGEPETIKTTIMAGRHAAMPAWGEVIGEEGVKNVAAFVLTQMDGRKLPEGAKADIEAGKQVFATTCVACHGPEGKGTPAMGAPDLTHPGAFIYGSSFAQLQQTIRYGRQGVMPAQQEHLGNDKVHLLAAYVYSLSHGE
- soluble on expression in E. coli: not soluble

Sequence: MSLADIFDFPRDARNVARADGKEADMGGEAPQTMLMRPQGVPDQVWNAVLSVDRMRRLKGMTYREIPVPNSMANFGIGVALECDETYASGWIMILYSLKFREDWHSHWRCVAFASLPLPDKEDDCLTPGMYWDMMMERLNPNDSEHVSGTVTVTQNTAFGHDPDVPRVGCEIRVSWTPLDYADGGLDAGSQVGQWASFLRSMTQSEEEGHHHHHH
- soluble on expression in E. coli: soluble

Sequence: AIAQSRKQLPITNAVIHPVVLLGIVDHYNRACKNTRKRAVGILLGTIDRRGHAEVLNSFAVPFEEDERNPTVFFFDHDYVENMAAMFRKVTARERIIGWYSTGPQIRPADMGVHEIVQGFCSSGHALYVICQVDPKETGLPTEAYVSLEEDSVALEGSAPGQPRRIFEHVPNSIGALEAEEVGTEHLLRDVRNWSVSTLTGEVRAKLDALQSLRARLENIRRYLEEVASGNLPLHQEILHALQLVLKGLPRNAASSELTQAFAVCSNEQTLLIYVATLLRSVLVLHDLVNNKTELLETERKMEVAFSNATTAMDAPGSPTVADSL
- soluble on expression in E. coli: soluble

Sequence: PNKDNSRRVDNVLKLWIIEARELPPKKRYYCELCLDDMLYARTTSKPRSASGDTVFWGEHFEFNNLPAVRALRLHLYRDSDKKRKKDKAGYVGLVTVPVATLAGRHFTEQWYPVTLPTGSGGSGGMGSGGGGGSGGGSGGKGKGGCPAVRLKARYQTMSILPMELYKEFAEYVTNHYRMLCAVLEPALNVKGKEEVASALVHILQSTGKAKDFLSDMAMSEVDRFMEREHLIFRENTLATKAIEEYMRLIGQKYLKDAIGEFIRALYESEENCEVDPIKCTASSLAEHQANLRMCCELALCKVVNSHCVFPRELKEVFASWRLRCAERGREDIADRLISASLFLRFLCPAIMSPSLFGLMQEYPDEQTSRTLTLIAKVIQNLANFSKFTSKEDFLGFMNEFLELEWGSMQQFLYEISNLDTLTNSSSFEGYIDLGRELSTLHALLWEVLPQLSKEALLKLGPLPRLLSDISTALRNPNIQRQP
- soluble on expression in E. coli: soluble

Sequence: MRDYSELEIFEGNPLDKWNDIIFHASKKLSKKELERLLELLALLETFIEKEDLEEKFESFAKALRIDEELQQKIESRKTDIVIQSMANILSGSGSGSGSSGNPLDKWNDIIFHASKKLSKKELERLLELLALLETFIEKEDLEEKFESFAKALRIDEELQQKIESRKTDIVIQSMANILSGLEHHHHHH
- soluble on expression in E. coli: soluble
